Source: patent publication US11905525B2, “Reduction of elimination of immune responses to non-intravenous, e.g., subcutaneously administered therapeutic proteins” (ModernaTX, Inc., priority 2017, dated 2024)

Tested on: accelerated blood clearance (ABC)
Test: Accelerated blood clearance (ABC) upon subsequent administration of LNP with a B cell targeting agent
Type: in vivo
Details: combination with the LNP

Rituximab: monoclonal antibody against the protein CD20
ABC upon subsequent administration of LNP: significantly reduced ABC
